The values that follow come from the RNAGym collection of RNA variant scans (doi:10.1021/acssynbio.7b00057).

B1: Pistol ribozyme (parent)
chain: GGGUCGUUGUUCCAUAAUCGCGUGGAUAUGGCACGCAAGUUUCUACCGGGCACCGUAAAUGUCCGACUGGAGCCGUUCGGGCGGCUAUAAACAGACCUCAGGCCCGAAGCGUGGCGGCACCUGCCGCCGGUGGUAAAAAAGAUCGGAAGAGCACACGUCU

In the data set the parent is B1. As to the kind of experiment: aptazyme ON/OFF ratio, guanine; higher = stronger switching; co-transcriptional cleavage with and without guanine.
For U7C U8A U10A U11C, the “aptazyme ON/OFF ratio” value was 1.05.

For the variant U7C U8A U10C U11G C12U C13G, the “aptazyme ON/OFF ratio” value was determined as 1.16.

For the variant U7C U8A U10C U11G C12U C13A, the “aptazyme ON/OFF ratio” value was found to be 1.28.

On to U7C U8A U10C U11G C12U C13U, for which the “aptazyme ON/OFF ratio” value turned out to be 1.35.

In the case of U7C U8A U10G C12A C13G, the “aptazyme ON/OFF ratio” value is 1.07.

As for U7C U8A U10G C12A C13U, the “aptazyme ON/OFF ratio” value is 1.27.

For U7C U8A U10G C12A C13A, the “aptazyme ON/OFF ratio” value was found to be 1.2.

With U7C U8A U10G U11A C12A C13U, the “aptazyme ON/OFF ratio” value was 1.24.

As to U7C U8A U10G U11A C12A C13A, the “aptazyme ON/OFF ratio” value turned out to be 1.14.

Consider U7C U8A U10G U11A C12A C13G, for which the “aptazyme ON/OFF ratio” value was found to be 1.08.

For the variant U7C U8A G9U U10C U11A C12A C13A, the “aptazyme ON/OFF ratio” value amounted to 1.08.

On to U7C U8A G9U U10C U11A C12A C13G, for which the “aptazyme ON/OFF ratio” value worked out at 1.13.

Turning to U7C U8A G9U U10C U11A C12A C13U, the “aptazyme ON/OFF ratio” value amounted to 1.15.

As to U7C U8A G9U U10C C13A, the “aptazyme ON/OFF ratio” value worked out at 1.05.

For the variant U7C U8A G9U U10C C13U, the “aptazyme ON/OFF ratio” value was 1.8.

Turning to U7C U8A G9U U10C C13G, the “aptazyme ON/OFF ratio” value was determined as 1.07.

For the variant U7C U8A U10C C12G C13A, the “aptazyme ON/OFF ratio” value stood at 1.19.

U7C U8A U10C C12G C13U: the “aptazyme ON/OFF ratio” value was determined as 1.31.

For U7C U8A U10C C12G C13G, the “aptazyme ON/OFF ratio” value worked out at 1.16.

Turning to U7C U8A G9U U10G U11G C12U, the “aptazyme ON/OFF ratio” value was found to be 1.25.

In the case of U7C U8A G9U U10G U11G C12G, the “aptazyme ON/OFF ratio” value amounted to 1.26.

As for U7C U8A G9U U10G U11G C12A, the “aptazyme ON/OFF ratio” value was 1.16.

Turning to U7C U8A U10C U11C C12U C13U, the “aptazyme ON/OFF ratio” value is 1.06.

Turning to U7C U8A U10C U11C C12U C13G, the “aptazyme ON/OFF ratio” value is 1.05.

As to U7C U8A U10C U11C C12U C13A, the “aptazyme ON/OFF ratio” value stood at 1.06.

Consider U7C U8A U10A U11A C12U C13U, for which the “aptazyme ON/OFF ratio” value is 1.13.

On to U7C U8A U10A U11A C12U C13A, for which the “aptazyme ON/OFF ratio” value was 1.23.

With U7C U8A U10A U11A C12U C13G, the “aptazyme ON/OFF ratio” value was found to be 1.35.

U7C U8A U10C U11C C12G C13A: the “aptazyme ON/OFF ratio” value came to 1.2.

Consider U7C U8A U10C U11C C12G C13U, for which the “aptazyme ON/OFF ratio” value is 1.09.

U7C U8A U10C U11C C12G C13G: the “aptazyme ON/OFF ratio” value came out at 1.12.

For the variant U7C U8A G9U U11C C12A C13G, the “aptazyme ON/OFF ratio” value is 1.07.

Regarding U7C U8A G9U U11C C12A C13U, the “aptazyme ON/OFF ratio” value turned out to be 1.2.

On to U7C U8A G9U U11C C12A C13A, for which the “aptazyme ON/OFF ratio” value is 1.1.

Regarding U7C U8A G9U U10C U11A C12G C13A, the “aptazyme ON/OFF ratio” value worked out at 1.1.

On to U7C U8A G9U U10C U11A C12G C13U, for which the “aptazyme ON/OFF ratio” value was found to be 1.13.

With U7C U8A G9U U10C U11A C12G C13G, the “aptazyme ON/OFF ratio” value is 1.09.

With U7C U8A G9U U10C U11C, the “aptazyme ON/OFF ratio” value came to 1.01.

As to U7C U8A G9U U10C U11A, the “aptazyme ON/OFF ratio” value turned out to be 1.27.

On to U7C U8A G9U U10C U11G, for which the “aptazyme ON/OFF ratio” value stood at 1.06.

With U7C U8A G9U U11A C13G, the “aptazyme ON/OFF ratio” value came out at 1.05.

U7C U8A G9U U11A C13U: the “aptazyme ON/OFF ratio” value was 1.17.

On to U7C U8A G9U U11A C13A, for which the “aptazyme ON/OFF ratio” value is 1.2.

Take U7C U8A G9U U11A C12G C13A: the “aptazyme ON/OFF ratio” value is 1.17.

With U7C U8A G9U U11A C12G C13U, the “aptazyme ON/OFF ratio” value stood at 1.15.

As for U7C U8A G9U U11A C12G C13G, the “aptazyme ON/OFF ratio” value is 1.15.

Consider U7C U8A U10G C13A, for which the “aptazyme ON/OFF ratio” value was found to be 1.52.

As to U7C U8A U10G C13G, the “aptazyme ON/OFF ratio” value came out at 1.14.

Regarding U7C U8A U10G C13U, the “aptazyme ON/OFF ratio” value worked out at 1.28.

As to U7C U8A G9U U11G C13U, the “aptazyme ON/OFF ratio” value was found to be 1.17.

For the variant U7C U8A G9U U11G C13A, the “aptazyme ON/OFF ratio” value stood at 1.17.

For U7C U8A G9U U11G C13G, the “aptazyme ON/OFF ratio” value worked out at 1.02.

As for U7C U8A G9U U11G C12U C13A, the “aptazyme ON/OFF ratio” value stood at 1.22.

Regarding U7C U8A G9U U11G C12U C13U, the “aptazyme ON/OFF ratio” value came to 1.24.

On to U7C U8A G9U U11G C12U C13G, for which the “aptazyme ON/OFF ratio” value turned out to be 1.17.

For the variant U7C U8A U10G C12G C13A, the “aptazyme ON/OFF ratio” value was found to be 1.13.

Take U7C U8A U10G C12G C13G: the “aptazyme ON/OFF ratio” value came out at 1.15.

In the case of U7C U8A U10G C12G C13U, the “aptazyme ON/OFF ratio” value was 1.41.

U7C U8A G9U U11C C13G: the “aptazyme ON/OFF ratio” value is 1.03.

For U7C U8A G9U U11C C13U, the “aptazyme ON/OFF ratio” value is 1.03.

On to U7C U8A G9U U11C C13A, for which the “aptazyme ON/OFF ratio” value worked out at 1.04.

Consider U7C U8A G9U U10G U11C C12G C13A, for which the “aptazyme ON/OFF ratio” value stood at 1.22.

Take U7C U8A G9U U10G U11C C12G C13U: the “aptazyme ON/OFF ratio” value came out at 1.24.

Consider U7C U8A G9U U10G U11C C12G C13G, for which the “aptazyme ON/OFF ratio” value was found to be 1.23.

For the variant U7C U8A G9U U10G U11C C12U C13A, the “aptazyme ON/OFF ratio” value was 1.16.

For U7C U8A G9U U10G U11C C12U C13U, the “aptazyme ON/OFF ratio” value is 1.22.

Take U7C U8A G9U U10G U11C C12U C13G: the “aptazyme ON/OFF ratio” value came to 1.14.

Consider U7C U8A G9U U10G C12A, for which the “aptazyme ON/OFF ratio” value came to 1.12.

As to U7C U8A G9U U10G C12U, the “aptazyme ON/OFF ratio” value is 1.41.

As for U7C U8A G9U U10G C12G, the “aptazyme ON/OFF ratio” value is 1.08.

Turning to U7C U8A G9U U10C C12A C13U, the “aptazyme ON/OFF ratio” value was 1.15.

As to U7C U8A G9U U10C C12A C13G, the “aptazyme ON/OFF ratio” value turned out to be 1.15.

Take U7C U8A U10A U11C C12U: the “aptazyme ON/OFF ratio” value stood at 1.01.

As for U7C U8A U10A U11C C12A, the “aptazyme ON/OFF ratio” value is 1.09.

U7C U8A U10A U11C C12G: the “aptazyme ON/OFF ratio” value came to 1.13.

Take U7C U8A G9U U10C C12G: the “aptazyme ON/OFF ratio” value amounted to 1.22.

With U7C U8A G9U U10C C12U, the “aptazyme ON/OFF ratio” value came out at 1.13.

In the case of U7C U8A G9U U10C U11G C12G C13A, the “aptazyme ON/OFF ratio” value worked out at 1.16.

As for U7C U8A G9U U10C U11G C12G C13G, the “aptazyme ON/OFF ratio” value came to 1.08.

In the case of U7C U8A G9U U10C U11G C12G C13U, the “aptazyme ON/OFF ratio” value amounted to 1.11.

As to U7C U8A U10A U11C C12A C13G, the “aptazyme ON/OFF ratio” value worked out at 1.06.

Take U7C U8A U10A U11C C12A C13A: the “aptazyme ON/OFF ratio” value came to 1.06.

Regarding U7C U8A U10A U11C C12A C13U, the “aptazyme ON/OFF ratio” value was found to be 1.06.
